# Measured values reported in PMC10397344.
# Tested on: MLH1 wt;PMS2 wt
# Assay: EMSA
# Settings: untreated; ATP; 20 mM HEPES pH 7.5, 40 ug/ml BSA, 1 mM DTT, 100 mM NaCl, 1.5 ul of 10 mM ATP added, 95 ng DNA, on ice 5 min; 4% native PAGE, 0.5xTBE pH 7.5
substance,measurement,value
GT-DNA-substrate (G/T mismatch),binding signal (% (reference)),100
